From the supplement of paper PMC12042874
± gives the uncertainty stated by the source.

Test: amyloid nucleation score (Sup35N fusion, yeast selection) (log enrichment); library NNK3; higher = more nucleation; inactive = no reads after selection
Outline: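 Growth for 7 days at 30°C on medium lacking adenine and uracil followed a 24-hour induction with 100 μM copper sulfate of psi-negative yeast expressing peptides of 20 random codons fused to Sup35N. Input and output plasmid inserts were sequenced with Illumina, and sequences with under 100 input reads were excluded. Nucleation score is the DiMSum log enrichment of output over input reads, centred on the mode score of non-aggregating sequences.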

Row | Substance | amyloid nucleation score
1 | SDERCLFGVQRYMHVFLRPI | inactive
2 | SDFPRMNWGFETKCDYSTVR | inactive
3 | SDFSVRVLDNWIHNMTGRIG | inactive
4 | SDGLLLPRSRNVATVEMGDL | inactive
5 | SDISRQYICVMYVSRLRG | inactive
6 | SDLQVIWFMFFCSTLVRDWI | inactive
7 | SDMVVKGERGYICILICRLR | inactive
8 | SDRIDNFAWINFCK | 0.831 ± 0.18
9 | SDRNSEGLTLF | inactive
10 | SDVDDKVHKVHQQLVAILHF | 0.624 ± 0.17
11 | SDVYWISLFVATSICCRSGA | inactive
12 | SEDDC | inactive
13 | SEGSNNVSCSI | inactive
14 | SELRC | 0.114 ± 0.44
15 | SEMELDLSFSPPYRGLPIIV | inactive
16 | SENSRRSLSAYFLQYGLWFW | inactive
17 | SESLMYRAKRVSTHYNFMCL | inactive
18 | SETDFYHGFIWGIPIGALSG | inactive
19 | SEVFFGSVPNDARDKLNTNP | inactive
20 | SEVFNQLGTARSNMARRACA | inactive
21 | SFCIIY | inactive
22 | SFCYN | inactive
23 | SFFFHSKSSGKTLNWSSDKA | 0.956 ± 0.091
24 | SFFNFRMD | inactive
25 | SFGMCTMYFYLNVCMAKGAR | inactive
26 | SFICVSSDLCARARVGDSSR | inactive
27 | SFKATV | inactive

Row | Substance | amyloid nucleation score
28 | SFKFMYNSFRSNGDIFSFNR | 2.35 ± 0.073
29 | SFKQIIDRFTSSFIVIFGLR | inactive
30 | SFLCLISIHCTDNDNGMHNC | inactive
31 | SFLSNCSFPDRSMKAYFIYY | 0.939 ± 0.11
32 | SFNTLIILSILFVLRQCGTR | inactive
33 | SFRHKYYEHRPTIWDMDCDL | inactive
34 | SFRSGLLSGRKWGHPVSSQE | inactive
35 | SFRSNVGFEVFLIATELRFC | inactive
36 | SFSEPAHWPSCSRFVRDCVS | inactive
37 | SFSLYLFPSRGLAPLPTAWL | 1.86 ± 0.089
38 | SFSVSKAWGWMYSIQRCCLC | inactive
39 | SFTSC | inactive
40 | SFYFWSDAYACIKARRM | inactive
41 | SFYWMHMSAMIEYDPFTYGA | inactive
42 | SGFDYV | inactive
43 | SGFFMMVYRR | -0.364 ± 0.75
44 | SGFPMVSIFESSI | inactive
45 | SGIFKLNCHKVGLILQSPYR | 0.055 ± 0.35
46 | SGIRDHLMRTKFDFVFKM | inactive
47 | SGKGE | inactive
48 | SGLDSWY | inactive
49 | SGLSNRGCCIMSY | inactive
50 | SGMVCVSLVG | inactive
51 | SGNNMRLHTTGLVASNGLGS | inactive
52 | SGNWTDRTVIPYHYYIDKLN | inactive
53 | SGPRDSRLCRDSSVSGVYLS | inactive
54 | SGRVTRWITSAMVARN | inactive

Row | Substance | amyloid nucleation score
55 | SGVKFSYNWQR | inactive
56 | SGWYWICLKHRGQVDHPLST | inactive
57 | SHECNLCFNVL | inactive
58 | SHMEWFT | 1.92 ± 0.088
59 | SHRFLDNFRFTMYTDVLGIE | inactive
60 | SIALH | inactive
61 | SICSEVGSSQLVVL | inactive
62 | SIFLMSFRA | 1.41 ± 0.1
63 | SIGISEPLIIYLFNWQLLYW | inactive
64 | SIGTKLASCLYLKR | inactive
65 | SIINLDLTAGHRYFYSSRSR | 2.11 ± 0.071
66 | SIKLGFYIIIFDLWYSPMMV | inactive
67 | SIKYSGFMWTWVNLLDPTVP | inactive
68 | SILKDS | inactive
69 | SILLVMP | inactive
70 | SILRVGKERRSGYSSGEEY | inactive
71 | SILYMVIASWYLY | inactive
72 | SIMIVLCGKLTLNFSLRNVV | inactive
73 | SIQKSWDASGSLIYS | inactive
74 | SISRLCVRMRIYKRTVAIYL | inactive
75 | SISTFYMLNMLKNMHLDGFG | inactive
76 | SISTQCWSPYVAFHSWKTH | 0.416 ± 0.79
77 | SISWRYWKSI | inactive
78 | SIVRIFIIN | 2.27 ± 0.056
79 | SIVSPIMRLFCFGLRAYKAV | inactive
80 | SKAYKAYNVLRLISI | inactive
